According to patent publication US20040203128:

Columns and labels:
[1] = system: GST-2E11 recombinant protein (fusion between a KCNQ2-15b polypeptide comprising exons 13, 14 and 15b and GST)
[2] = system: GST protein (negative control, from pGEX2TK) [GST: P08515]
GST protein (negative control, from pGEX2TK) [GST: P08515], sequence (P08515 whole entry): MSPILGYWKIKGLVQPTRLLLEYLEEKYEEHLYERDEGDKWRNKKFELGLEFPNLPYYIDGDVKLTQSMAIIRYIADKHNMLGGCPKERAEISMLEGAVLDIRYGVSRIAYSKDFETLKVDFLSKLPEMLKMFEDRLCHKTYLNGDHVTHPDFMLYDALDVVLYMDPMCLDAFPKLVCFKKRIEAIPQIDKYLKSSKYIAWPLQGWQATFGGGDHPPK

GST-2E11 recombinant protein (fusion between a KCNQ2-15b polypeptide comprising exons 13, 14 and 15b and GST), sequence (chain, as listed by the source): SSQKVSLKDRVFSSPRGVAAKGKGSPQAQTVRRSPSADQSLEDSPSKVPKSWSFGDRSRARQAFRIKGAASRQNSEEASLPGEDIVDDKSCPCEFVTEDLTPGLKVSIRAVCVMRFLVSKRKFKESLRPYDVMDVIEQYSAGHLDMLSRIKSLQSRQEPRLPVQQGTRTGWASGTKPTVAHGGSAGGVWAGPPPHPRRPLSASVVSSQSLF

Row | Substance | in vitro dephosphorylation, loss of the 32P band, with or without okadaic acid [1] | in vitro phosphorylation, 32P autoradiography after SDS-PAGE [2] | in vitro phosphorylation, 32P autoradiography after SDS-PAGE [1]
1 | PP2A phosphatase in whole cell extracts of the human glioblastoma, astrocytoma cell line HTB-14 | In the line loaded with GST-2E11 fusion proteins incubated in the presence of HTB-14 cell extracts, the band had an extremely weaker intensity |  | 
2 | Protein Kinase A Catalytic Subunit (PKA from bovine heart, Sigma) |  | No bands appeared in the three lines corresponding to the negative controls | Thus the GST-2E11 protein is phosphorylated by GSK-3β and PKA in vitro
3 | recombinant GSK-3β kinase (New England Biolabs) |  | No bands appeared in the three lines corresponding to the negative controls | Thus the GST-2E11 protein is phosphorylated by GSK-3β and PKA in vitro
